By Kd is commonly meant a measure of binding affinity in units of concentration.

B1: truncated APLF^AD construct corresponding to residues 449 to 490 (APLF^AD-Δ) [Homo sapiens] / stoichiometric mixture of full-length Drosophila melanogaster -H2B and H3-H4 (octamer-mix) [Drosophila … (parent)
chain 1: GLDEDNDNVGQPNEYDLNDSFLDDEEEDYEPTDEDSDWEPGKE
chain 2: not shown
chain 3: not shown
chain 4: not shown
chain 5: not shown

In this test the parent is B1. Kind of test: ITC. The note with it: with stoichiometric mixture of full-length Drosophila melanogaster H2A-H2B and H3-H4 (octamer-mix) [Drosophila melanogaster].
On to chain 1 Y15A F21A Y29A W38A, for which the Kd came out at 1220 nM.

The values are drawn from publication PMC9328677.
